The source of these data is US20240376180A1 (DEUTSCHES ZENTRUM FUR NEURODEGENERATIVE ERKRANKUNGEN E V …, published 2024).

For assay [1], the target named is SARS-CoV-2 S protein-RBD-mFc (SARS-CoV-2, UniProt P0DTC2 319-537).
In another assay the target is beta-2 microglobulin (Homo sapiens (Human), UniProt P61769 21-119). As to the kind of experiment: routine laboratory ELISA. A general note: In an ELISA, binding on a coated surface is turned into a signal by an enzyme label.
Assay [2] addresses T1, Spike protein of authentic SARS-CoV-2 (Munich isolate 984) (SARS-CoV-2, UniProt P0DTC2 14-1273). Put plainly: cell-based or functional assay. Further details: IC90 Neutralizing Assay: unit not given beside the values.
Assay [3] deals with T1, Spike protein of authentic SARS-CoV-2 …. Put plainly: cell-based or functional assay.
For assay [4], the target named is Fc fusion protein of the RBD-SD1 region of SARS-CoV (SARS-CoV, UniProt P59594 306-577). As to the kind of experiment: ELISA on captured RBD-SD1-Fc.
Assay [5] concerns the target T2, Fc fusion protein of the RBD-SD1 region of MERS-CoV (MERS-CoV, UniProt K9N5Q8 367-655).
T2 sequence: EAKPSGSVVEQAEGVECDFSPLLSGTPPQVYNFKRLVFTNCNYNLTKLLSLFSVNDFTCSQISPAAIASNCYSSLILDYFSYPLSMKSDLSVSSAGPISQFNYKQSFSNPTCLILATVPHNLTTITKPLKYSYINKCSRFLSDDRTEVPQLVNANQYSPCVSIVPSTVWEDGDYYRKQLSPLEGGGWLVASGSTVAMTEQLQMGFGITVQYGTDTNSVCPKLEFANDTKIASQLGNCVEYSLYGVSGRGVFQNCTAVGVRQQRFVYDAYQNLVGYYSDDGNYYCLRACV
Put plainly: ELISA on captured RBD-SD1-Fc.

The target of assay [6] is T3, Fc fusion protein of the RBD-SD1 region of HCoV-HKU1 (HCoV-HKU1, UniProt Q5MQD0 310-677).
T3 construct: domain: RBD-SD1 region
T3 sequence: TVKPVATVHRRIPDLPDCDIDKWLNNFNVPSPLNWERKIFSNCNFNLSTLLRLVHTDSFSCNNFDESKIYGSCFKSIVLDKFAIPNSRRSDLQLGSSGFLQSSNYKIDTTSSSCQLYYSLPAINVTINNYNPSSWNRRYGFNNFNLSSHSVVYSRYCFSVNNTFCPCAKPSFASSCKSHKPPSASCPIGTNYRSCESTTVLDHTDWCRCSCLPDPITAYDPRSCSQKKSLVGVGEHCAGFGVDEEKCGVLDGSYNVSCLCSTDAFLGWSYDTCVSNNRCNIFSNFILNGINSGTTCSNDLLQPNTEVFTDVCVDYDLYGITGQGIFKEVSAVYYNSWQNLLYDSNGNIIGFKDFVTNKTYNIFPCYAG
As to the kind of experiment: ELISA on captured RBD-SD1-Fc.

In assay [7] the target is T4, Fc fusion protein of the RBD-SD1 region of HCoV-OC43 (HCoV-OC43, UniProt P36334 318-675).
T4 construct: domain: RBD-SD1 region
T4 sequence: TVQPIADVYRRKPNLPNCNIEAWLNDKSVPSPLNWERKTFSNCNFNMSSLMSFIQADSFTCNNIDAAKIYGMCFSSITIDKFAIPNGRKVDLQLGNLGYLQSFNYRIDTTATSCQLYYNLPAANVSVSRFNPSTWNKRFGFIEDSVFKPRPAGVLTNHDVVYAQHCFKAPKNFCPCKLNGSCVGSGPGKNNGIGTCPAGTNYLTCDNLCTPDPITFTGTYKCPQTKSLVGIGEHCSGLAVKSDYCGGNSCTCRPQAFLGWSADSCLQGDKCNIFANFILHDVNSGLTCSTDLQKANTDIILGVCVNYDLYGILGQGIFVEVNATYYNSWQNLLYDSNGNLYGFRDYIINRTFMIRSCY
Put plainly: ELISA on captured RBD-SD1-Fc.

beta-2 microglobulin, sequence (P61769 21-119 limits assumed): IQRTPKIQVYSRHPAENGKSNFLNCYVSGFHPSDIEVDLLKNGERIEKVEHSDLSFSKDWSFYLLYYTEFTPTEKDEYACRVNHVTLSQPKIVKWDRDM

B1: HL CV07-262 (antibody, V domains shown)
VH: QVQLVQSGAEVKKPGASVKVSCKASGYTFTGYYMHWVRQAPGQGLEWMGWINPNSGGTNYAQTFQGRVTMTRDTSITTTYMELSRLRSDDTAVYYCARVGWYDFGTPGDYYYYYGMDVWGQGTTVTVSS
VL: QSALTQPASVSGSPGQSITISCTGTSSDVGSYNLVSWYQQHPGKAPKLMIYEGSKRPSGVSNRFSGSKSGNTASLTISGLQAEDEADYFCCSYAGTSTFVFGTGTKVTVLG
Consider B1, for which the Kd (usually a measure of binding affinity in units of concentration) in assay [1] amounted to 0.079 nM. For the same molecule, the binding result with beta-2 microglobulin is recorded as “no binding (tested: 50 µg/ml)”; in assay [4], “no binding (tested: 1 µg/ml)”; in assay [5], “no binding (tested: 1 µg/ml)”; in assay [6], “no binding (tested: 1 µg/ml)”; in assay [7], “no binding (tested: 1 µg/ml)”. In addition, in assay [2], the “IC50 Neutralizing Assay” value was < 0.05 mg/L. Further, the “IC90 Neutralizing Assay” value in assay [2] was ~500. Moreover, the “IC50 (PRNT, authentic SARS-CoV-2)” value in assay [3] was found to be 0.0071 mg/L.

B2: HL CV07-255 (antibody, V domains shown)
VH: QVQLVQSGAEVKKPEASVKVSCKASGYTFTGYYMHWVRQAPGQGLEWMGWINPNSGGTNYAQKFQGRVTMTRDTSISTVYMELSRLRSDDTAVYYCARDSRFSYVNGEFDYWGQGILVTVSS
VL: QSALTQPASVSGSPGQSITISCTRTSSDVESYNLVSWYQQHPGKAPKLMIYEVSKRPSGISNRFSGSKSGNTASLTISGLQAEDEADYYCCSYAGHSTWVFGGGTELTVLG
Turning to B2, the binding result with beta-2 microglobulin is recorded as “no binding (tested: 50 µg/ml)”; in assay [4], “no binding (tested: 1 µg/ml)”; in assay [5] it was “no binding (tested: 1 µg/ml)”; in assay [6], “no binding (tested: 1 µg/ml)”; in assay [7] it was “no binding (tested: 1 µg/ml)”. For the same molecule, the “IC50 Neutralizing Assay” value in assay [2] is ~0.05 mg/L. For the same molecule, the “IC50 (PRNT, authentic SARS-CoV-2)” value in assay [3] is 0.0145 mg/L.

B3: HL CV07-267 (antibody, V domains shown)
VH: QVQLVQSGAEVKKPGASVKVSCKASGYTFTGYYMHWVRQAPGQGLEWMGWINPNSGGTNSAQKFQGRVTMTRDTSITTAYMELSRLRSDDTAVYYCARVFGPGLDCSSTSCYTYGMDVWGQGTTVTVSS
VL: QSALTQPASVSGSPGQSITISCTGTSSDVGSYNLVSWYQQHPGKAPKLMIYEVSKRPSGVSNRFSGSKSGNTASLTISGLQAEDEADYYCCSYAGSSSWVFGGGTKLTVLG
As to B3, the “IC50 Neutralizing Assay” value in assay [2] is ~500.

B4: HL CV07-222 (antibody, V domains shown)
VH: QVQLVQSGAEVKKPGASVKVSCKASGYTFTDYYVHWVRQAPGQGLEWMGWINPISGGTNYAQKFQGRVTMTRDTSISTAYMELSRLRSDDTAVYYCARGPYYYDSSGSLGAFDIWGQGTMVTVSS
VL: QSALTQPASVSGSPGQSITISCTGTSSDVGSYNLVSWYQQHPGKAPKLMIYEGSKRPSGVSNRFSGSKSGNTASLTISGLQAEDEAHYYCCSYAGGSTSYVFGTGTKVTVLG
Take B4: the Kd in assay [1] is 0.00697 nM. Also, the binding result with beta-2 microglobulin is “no binding (tested: 50 µg/ml)”; in assay [4] it was “no binding (tested: 1 µg/ml)”; in assay [5], “no binding (tested: 1 µg/ml)”; in assay [6], “no binding (tested: 1 µg/ml)”; in assay [7] it was “no binding (tested: 1 µg/ml)”. The “IC50 Neutralizing Assay” value in assay [2] is < 0.05 mg/L. Also, the “IC50 (PRNT, authentic SARS-CoV-2)” value in assay [3] turned out to be 0.0078 mg/L.

B5: HK CVX2-106 (antibody, V domains shown)
VH: QVQLVQSGAEVKKPGSSVKVSCKASGGTFSSYAISWVRQAPGQGLEWMGGIIPIFGTANYAQKFQGRVTITADESTSTAYMELSSLRSEDTAVYYCATRKETTVTTSLVYGMDVWGQGTTVTVSS
VL: not shown
Take B5: the binding result with beta-2 microglobulin was “no binding (tested: 50 µg/ml)”; in assay [4], “no binding (tested: 1 µg/ml)”; in assay [5] it was “no binding (tested: 1 µg/ml)”; in assay [6], “no binding (tested: 1 µg/ml)”; in assay [7], “no binding (tested: 1 µg/ml)”. In assay [2], the “IC50 Neutralizing Assay” value was ~0.5 mg/L. In addition, the “IC50 (PRNT, authentic SARS-CoV-2)” value in assay [3] was 0.0176 mg/L.

B6: HK CV07-209 (antibody, V domains shown)
VH: QVQLVESGGGLVKPGGSLRLSCAASGFTFSDYYMSWIRQAPGKGLEWVSYISSSVSTIYYADSVKGRFTISRDNAKNSLYLQMNSLRAEDTAVYYCARDGVIPPRFDYWGQGTLVTVSS
VL: not shown
The molecule B6 displayed a dissociation constant Kd in assay [1] of 0.006 nM. The binding result with beta-2 microglobulin was “no binding (tested: 50 µg/ml)”; in assay [4] it was “no binding (tested: 1 µg/ml)”; in assay [5] it was “no binding (tested: 1 µg/ml)”; in assay [6], “no binding (tested: 1 µg/ml)”; in assay [7], “no binding (tested: 1 µg/ml)”. The “IC50 Neutralizing Assay” value in assay [2] is < 0.05 mg/L. Moreover, the “IC50 (PRNT, authentic SARS-CoV-2)” value in assay [3] came to 0.0031 mg/L.

B7: HK CV38-221 (antibody, V domains shown)
VH: EVQLVESGGGLVQPGGSLRLSCAASGITVSSNYMIWVRQAPGKGLEWVSVIYSGGSTYYADSVKGRFTISRDNSKNTLYLQMNSLRAEDTAVYYCARGFGDYYFDYWGQGTLVTVSS
VL: EIVLTQSPGTLSLSPGERATLSCRASQSVSSSYFAWYQQKPGQAPRLLIYGASSRATGIPDRFSGSGSGTDFTLTISRLEPEDFAVYYCQQLYTFGQGTKLEIKR
In the case of B7, in assay [1], the Kd amounted to 0.499 nM. Moreover, the binding result is “no binding (tested: 50 µg/ml)” with beta-2 microglobulin; “no binding (tested: 1 µg/ml)” in assay [4]; “no binding (tested: 1 µg/ml)” in assay [5]; “no binding (tested: 1 µg/ml)” in assay [6]; “no binding (tested: 1 µg/ml)” in assay [7]. Also, in assay [3], the “IC50 (PRNT, authentic SARS-CoV-2)” value worked out at 0.173 mg/L.

B8: HL CV07-270 (antibody, V domains shown)
VH: QVQLVESGGGLVKPGGSLRLSCAASGFTFSDYYMTWIRQAPGKGLEWVSYISSSGSTIYYADSVKGRFTISRDNAKNSLYLQMNSLRAEDTAVYYCARARGSSGWYRIGTRWGNWFDPWGQGTLVTVSS
VL: QSALTQPASVSGSPGQSITISCTGTSSDVGGYNYVSWYQQHPGKAPKLMIYEVSNRPSGVSNRFSGSKSGNTASLTISGLQAEDEADYYCSSYTSSSNVVFGGGTMLTVLG
Regarding B8, the binding result with beta-2 microglobulin is reported as “no binding (tested: 50 µg/ml)”; in assay [4], “no binding (tested: 1 µg/ml)”; in assay [5], “no binding (tested: 1 µg/ml)”; in assay [6], “no binding (tested: 1 µg/ml)”; in assay [7], “no binding (tested: 1 µg/ml)”. Moreover, the “IC90 Neutralizing Assay” value in assay [2] was ~500. Also, the “IC50 (PRNT, authentic SARS-CoV-2)” value in assay [3] turned out to be 0.0823 mg/L.

B9: HK CVX1-126 (antibody, V domains shown)
VH: EVQLVESGGGLVQPGGSLRLSCAASGLTVSSNYMSWVRQAPGKGLEWVSVIYSGGSTYYADSVKGRFTISRHNSKNTLYLQMNSVRAEDTAVYYCARDLSEGGMDVWGQGTTVTVSS
VL: DIQMTQSPSSVSASVGDRVTITCRASQGISSWLAWYQQKPGKAPKLLIYAASTLQSGVPSRFSGSGSGTDFTLTISSLQPEDFATYYCQQANGFPPLFGGGTKVEIKR
In assay [1], B9 registered a Kd of 0.243 nM. Moreover, the binding result was “no binding (tested: 50 µg/ml)” with beta-2 microglobulin; “no binding (tested: 1 µg/ml)” in assay [4]; “no binding (tested: 1 µg/ml)” in assay [5]; “no binding (tested: 1 µg/ml)” in assay [6]; “no binding (tested: 1 µg/ml)” in assay [7]. In assay [3], the “IC50 (PRNT, authentic SARS-CoV-2)” value is 0.0717 mg/L.

B10: HK CV38-139 (antibody, V domains shown)
VH: EVQLVESGGGLVQPGGSLRLSCAASGFTVSSNYMSWVRQAPGKGLEWVSVFYSGGSTFYADSVKGRFTISRDNSKNTLYLQMNSLRAEDTAVYYCARGHYDLFDYWGQGTLVTVSS
VL: DIQLTQSPSFLSASVGDRVTITCRASQGISSYLAWYQQKPGKAPKLLIYAASTLQSGVPSRFSGSGSGTEFTLTISSLQPEDFATYYCQQLNSYPPGTFGPGTKVDIKR
The molecule B10 had a Kd in assay [1] of 0.277 nM. Also, the binding result with beta-2 microglobulin is reported as “no binding (tested: 50 µg/ml)”; in assay [4], “no binding (tested: 1 µg/ml)”; in assay [5] it was “no binding (tested: 1 µg/ml)”; in assay [6], “no binding (tested: 1 µg/ml)”; in assay [7], “no binding (tested: 1 µg/ml)”. The “IC50 (PRNT, authentic SARS-CoV-2)” value in assay [3] came out at 0.0732 mg/L.
